The text below walks through data of patent publication US20110287023A1 (AstraZeneca / MedImmune, published 2011).

Test [1] deals with T1, HMGB1 in joint lysate of adjuvant induced arthritis (AIA) rats (rat, UniProt P63159 2-215).
T1 construct: also called HMGB1 from arthritis joints; joint lysate HMGB1
T1 sequence (looked up): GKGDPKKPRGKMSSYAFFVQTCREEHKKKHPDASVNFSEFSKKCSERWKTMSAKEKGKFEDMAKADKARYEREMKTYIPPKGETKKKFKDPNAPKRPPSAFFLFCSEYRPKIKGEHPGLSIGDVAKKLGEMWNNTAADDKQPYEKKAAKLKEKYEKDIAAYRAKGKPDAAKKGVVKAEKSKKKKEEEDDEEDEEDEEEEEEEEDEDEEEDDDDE
Kind of test: sandwich ELISA: antibody captured on anti-human Fc, AIA joint lysate added, mouse anti-HMGB1 detection, OD 450. On the procedure: HMGB1 Detection from Biological Samples: For detection of the HMGB1 from AIA joint homogenates and peritonitis sera, sandwich ELISA was performed. Goat anti-human Fc (Pierce) 14 μg/ml in PBS was coated on Immunlon IV microtiter plate over night at 4° C. After washing and blocking with 5% milk 1 hr at room temperature, G4 or S6 in blocking buffer (10 μg/ml) were added to each well of the blocked plate. The plate was washed 1 hour later and 25 μl of AIA homogenates containing 0.8 μg/ml of HMGB1 or peritonitis sera containing 7 μg/ml of HMGB1 in 0.5 M NaCl/blocking buffer were added to the wells at two fold serial dilutions. The unbound materials were removed by washing one hr after incubation. The bound HMGB1 was detected by a mouse anti-HMGB1 antibody at 2 μg/ml followed by an anti-mouse antibody conjugated with horseradish peroxidase. Mouse peritonitis sera was obtained by heart puncture 7 days after infection with heat killed staphylococcus aureus. Joint lysate was prepared from the whole paw of AIA rats as described in Example 6 below. Human sepsis sera were purchased from a commercial source.

Test [2] deals with T2, HMGB1 C-terminal tail peptide 188-215 (UniProt P09429 188-215, biotinylated).
T2 peptide (looked up): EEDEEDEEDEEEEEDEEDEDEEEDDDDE
Kind of test: ELISA on biotinylated overlapping peptides. The protocol: (§1) The plate was then blocked with 4% milk powder dissolved in PBS at 37° C. for 1 hour. The blocking solution was removed and replaced with human anti-HMG1 antibodies at various concentrations (see FIGS. 5A-B). […] HRP activity was detected with Sureblue HRP substrate (KPL). Plates were read at 450 nm using a Kinetic Microplate Reader (Molecular Devices). […] After washing and blocking with 1% BSA in PBS, the biotinylated peptides were individually added into the avidin coated wells and incubated for 30 min at room temperature. The serial diluted antibody G4, S16 and S6 at the initial concentration at 10 μg/ml were then transferred into the wells followed by adding mouse anti human IgG-HRP conjugate (Pierce). Detection was accomplished by adding 50 μl of tetramethylbenzidine (TMB) substrate (KPL) and the absorbance was read at 450 nm.
(In general: An ELISA detects its analyte on a solid surface through an enzyme-linked reagent.)

The target in test [3] is T3, HMGB1 B-box peptide 108-138 (UniProt P09429 108-138, biotinylated).
T3 peptide (looked up): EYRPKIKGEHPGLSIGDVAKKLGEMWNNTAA
Kind of test: ELISA on biotinylated overlapping peptides. On the procedure: as §1

Test [4] deals with T4, HMG1 purified from calf (bovine) thymus (bovine, UniProt P10103 2-215).
T4 construct: also called Calf thymus HMGB1; thymus HMG1
T4 sequence (looked up): T1 sequence (looked up) with D188E, E201D, D206E
As to the kind of experiment: blocking ELISA: thymus HMGB1 pre-incubated with the antibody, then added to coated RAGE/Fc (blocked partner: RAGE/Fc); one bar per antibody, the antibody's concentration is not given. On the procedure: HMG1 binding to RAGE-Ig by ELISA: 50 μl/well of RAGE-Fc fusion protein at 5 μg/ml in PBS was added to each well of an ELISA plate and incubated overnight at 4° C. The plate was then blocked with 200 μl of 5% milk at 37° C. for 1 hr and washed 3× with PBS/Tween. 50 μl/well of diluted HMGB1 solution. For dose curves, HMGB1 concentrations started at 4 ug/ml in PBS. For antibody blocking the HMGB1 was preincubated in another plate with human anti-HMG1 antibodies or buffer, then transferred to the RAGE-coated plate. The plates were then incubated at room temperature for 2 hours and washed 3×. To detect any HMG1 bound to the immobilized RAGE-Fc a mixture of biotinylated mouse anti-HMG1 mAbs (10D4, 4H11, 3E10 and 5C12) each at 1 ug/ml, total Ab: 4 ug/ml, were added to each well and the plate was incubated for 1 hour at room temperature. The plate was then washed and Strepavidin-HPR was added to each well and incubated 15 min. The plate was then washed 3× and blotted dry. 100 μl of TMB developing agent was added and the plate read at 650 nm. Values were calculated as percent of inhibition with HMG1 alone equal to 0% inhibition. The data in FIG. 9 and summarized in Table 1 represent the average of two separate experiments.

Positions count from the first letter of the chain named.

B1: human anti-HMG1 antibody G4 (antibody, IgG1, V domains shown)
VH: EVQLLESGGGLVQPGGSLRLSCAASGFTFSWYDMTWVRQAPGKGLEWVSSISPSGGYTKYADSVKGRFTISRDNSKNTLYLQMNSLRAEDTAVYYCTTEFYDYLDVWGKGTTVTVSS
VL: DIQMTQSPGTLSLSPGEGATLSCRASQSVSSTYLAWYQQKPGQAPRLLIYEASKRATGTPARFSGSGSGTDFTLSISSLEPEDFAVYYCQHRHNWPPQWTFGQGTKVEVK
notes: full length IgG1 made from a human Fab phage clone; also called ATCC PTA-6258
Turning to B1, the binding result in test [1], in test [2] and in test [3] was “binds” in each case.

B2: human anti-HMG1 antibody E11 (antibody, IgG1, V domains shown)
VH: EVQLLESGGGLVQPGGSLRLSCAASGFTFSRYQMNWVRQAPGKGLEWVSSISPSGGHTHYADSVKGRFTISRDNSKNTLYLQMNSLRAEDTAVYYCAKDGRQGKISTVDHWGQGTLVTVSS
VL: DIQMTQSPGTLSLSPGERATLSCRASQSVRSNFLAWYQQKPGQAPRLLIYGASRRASGIPDRFSGSGFGADFTLSISRLEPEDFAVYYCQQYGSSPNTFGQGSRVEIK
notes: full length IgG1 made from a human Fab phage clone
For the molecule B2, the binding result in test [4] is recorded as “binds”.
